Results reported in article PMC13138755, “Potential Rad54 separation of function mutation highlights unique roles during homologous recombination”.

What was measured:
Settings in all cases: protein: recombinant; tags: GFP-GST (N-term); label: Atto647N 5' on strand 1; blunt
[1] = target: T1, Rad54 S816D/S817D (Saccharomyces cerevisiae, UniProt P32863 1-898, S816D;S817D); assay: EMSA; apparent Kd; Hill fit; 3 mM Mg2+; p = 0.008 vs WT; EMSA: 35 mM Tris-Cl pH 7.5, 3 mM MgCl2, 50 mM KCl, 1 mM DTT, 10% glycerol, 10 nM DNA, 30 C, 5 min, 8% native PAGE in 0.5x TBE; DNA curtains: HR buffer (composition not given), 10 nM GFP-Rad54, flow 0.2 mL/min
T1 sequence: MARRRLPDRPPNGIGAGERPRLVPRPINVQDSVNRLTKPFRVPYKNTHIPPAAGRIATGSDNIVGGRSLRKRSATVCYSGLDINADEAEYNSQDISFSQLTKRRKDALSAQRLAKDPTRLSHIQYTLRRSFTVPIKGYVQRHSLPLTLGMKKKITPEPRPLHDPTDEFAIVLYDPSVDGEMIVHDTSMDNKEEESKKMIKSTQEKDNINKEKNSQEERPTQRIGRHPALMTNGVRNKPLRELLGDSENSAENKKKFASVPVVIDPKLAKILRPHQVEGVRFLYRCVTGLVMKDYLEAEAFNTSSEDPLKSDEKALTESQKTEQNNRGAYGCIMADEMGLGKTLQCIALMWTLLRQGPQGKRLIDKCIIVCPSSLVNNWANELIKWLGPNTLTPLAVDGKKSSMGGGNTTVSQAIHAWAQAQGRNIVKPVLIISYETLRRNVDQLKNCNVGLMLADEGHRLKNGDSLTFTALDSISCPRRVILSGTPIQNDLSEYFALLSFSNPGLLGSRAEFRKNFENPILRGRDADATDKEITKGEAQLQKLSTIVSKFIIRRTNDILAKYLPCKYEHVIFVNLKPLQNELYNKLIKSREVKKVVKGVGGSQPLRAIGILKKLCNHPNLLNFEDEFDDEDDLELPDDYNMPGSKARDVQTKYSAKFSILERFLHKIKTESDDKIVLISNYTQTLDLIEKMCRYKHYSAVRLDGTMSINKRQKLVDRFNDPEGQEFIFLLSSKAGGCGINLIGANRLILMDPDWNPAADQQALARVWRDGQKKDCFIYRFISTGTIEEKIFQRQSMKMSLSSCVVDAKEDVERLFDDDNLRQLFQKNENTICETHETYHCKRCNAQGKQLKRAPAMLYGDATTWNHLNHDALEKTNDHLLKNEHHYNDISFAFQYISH

[2] = target: T2, Rad54 S816A/S817A (Saccharomyces cerevisiae, UniProt P32863 1-898, S816A;S817A); assay: EMSA; 3 mM Mg2+; Kd slightly above WT, not significant; value only in figure; EMSA: 35 mM Tris-Cl pH 7.5, 3 mM MgCl2, 50 mM KCl, 1 mM DTT, 10% glycerol, 10 nM DNA, 30 C, 5 min, 8% native PAGE in 0.5x TBE; DNA curtains: HR buffer (composition not given), 10 nM GFP-Rad54, flow 0.2 mL/min
T2 sequence: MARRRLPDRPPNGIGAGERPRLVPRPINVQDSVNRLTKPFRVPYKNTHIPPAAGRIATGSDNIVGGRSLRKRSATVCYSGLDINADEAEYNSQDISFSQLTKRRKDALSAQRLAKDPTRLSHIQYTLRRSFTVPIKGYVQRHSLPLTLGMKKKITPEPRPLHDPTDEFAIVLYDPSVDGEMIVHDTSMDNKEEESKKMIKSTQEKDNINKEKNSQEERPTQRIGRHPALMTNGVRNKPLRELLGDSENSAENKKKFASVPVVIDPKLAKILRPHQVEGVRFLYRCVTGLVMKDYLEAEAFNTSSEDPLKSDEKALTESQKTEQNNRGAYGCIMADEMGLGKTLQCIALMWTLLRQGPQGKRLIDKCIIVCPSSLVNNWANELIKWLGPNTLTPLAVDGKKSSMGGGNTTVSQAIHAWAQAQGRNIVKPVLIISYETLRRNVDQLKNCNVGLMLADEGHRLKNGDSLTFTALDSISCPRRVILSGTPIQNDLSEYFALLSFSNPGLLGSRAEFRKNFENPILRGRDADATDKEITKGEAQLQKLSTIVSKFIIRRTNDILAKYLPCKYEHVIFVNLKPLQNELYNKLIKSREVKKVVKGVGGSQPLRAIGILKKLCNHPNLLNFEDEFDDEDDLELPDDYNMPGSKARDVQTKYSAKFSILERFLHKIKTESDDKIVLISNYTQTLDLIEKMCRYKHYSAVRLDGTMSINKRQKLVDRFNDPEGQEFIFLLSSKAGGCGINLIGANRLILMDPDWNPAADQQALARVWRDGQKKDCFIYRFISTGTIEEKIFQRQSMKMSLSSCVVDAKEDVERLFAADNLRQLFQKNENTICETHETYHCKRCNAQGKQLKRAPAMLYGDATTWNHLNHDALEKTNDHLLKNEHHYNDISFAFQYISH

[3] = target: T3, Rad54 D525S/D527S/S816D/S817D (Saccharomyces cerevisiae, UniProt P32863 1-898, D525S;D527S;S816D;S817D); assay: EMSA; apparent Kd; Hill fit; 3 mM Mg2+; EMSA: 35 mM Tris-Cl pH 7.5, 3 mM MgCl2, 50 mM KCl, 1 mM DTT, 10% glycerol, 10 nM DNA, 30 C, 5 min, 8% native PAGE in 0.5x TBE; DNA curtains: HR buffer (composition not given), 10 nM GFP-Rad54, flow 0.2 mL/min
T3 sequence: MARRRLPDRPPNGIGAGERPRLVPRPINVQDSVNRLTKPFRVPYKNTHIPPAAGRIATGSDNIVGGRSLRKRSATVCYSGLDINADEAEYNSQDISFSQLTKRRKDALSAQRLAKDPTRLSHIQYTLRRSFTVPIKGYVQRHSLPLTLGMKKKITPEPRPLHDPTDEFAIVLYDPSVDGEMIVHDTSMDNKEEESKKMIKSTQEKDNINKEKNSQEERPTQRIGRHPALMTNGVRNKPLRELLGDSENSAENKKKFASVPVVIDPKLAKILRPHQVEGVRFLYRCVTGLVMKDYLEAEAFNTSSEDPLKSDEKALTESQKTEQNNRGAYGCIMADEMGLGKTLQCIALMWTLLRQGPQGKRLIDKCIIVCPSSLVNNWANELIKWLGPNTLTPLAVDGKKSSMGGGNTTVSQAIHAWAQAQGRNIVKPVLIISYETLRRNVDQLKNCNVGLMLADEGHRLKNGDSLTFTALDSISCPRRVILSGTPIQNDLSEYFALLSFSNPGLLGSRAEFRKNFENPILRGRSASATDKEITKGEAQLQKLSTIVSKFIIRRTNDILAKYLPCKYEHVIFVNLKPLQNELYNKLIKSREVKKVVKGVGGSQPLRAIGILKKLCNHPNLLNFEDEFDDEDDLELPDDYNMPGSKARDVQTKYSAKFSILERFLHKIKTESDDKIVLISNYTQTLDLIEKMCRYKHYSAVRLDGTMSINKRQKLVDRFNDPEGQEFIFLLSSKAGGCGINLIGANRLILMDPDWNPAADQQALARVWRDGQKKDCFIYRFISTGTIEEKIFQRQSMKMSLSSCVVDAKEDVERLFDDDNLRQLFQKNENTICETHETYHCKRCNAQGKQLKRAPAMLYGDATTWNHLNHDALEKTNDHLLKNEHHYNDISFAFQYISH

B1: 90 bp dsDNA (90-mer) (dsDNA)
DNA 1: GATGTTCTGCTGGATATGCACTTTTCCGGGCTGACGTACACCGTGCTCAGCCTGTTTTTCAGCGATCCGGATATGCATCCGCTGGATTTC
DNA 2: GAAATCCAGCGGATGCATATCCGGATCGCTGAAAAACAGGCTGAGCACGGTGTACGTCAGCCCGGAAAAGTGCATATCCAGCAGAACATC
[1]
  Kd: 41 nM
[2]
  binding result: binds
[3]
  Kd: ~18 nM
